Source: publication PMC9604513, “De novo selected hACE2 mimics that integrate hotspot peptides with aptameric scaffolds for binding tolerance of SARS-CoV-2 variants” (Science Advances, 2022)

How the values were obtained:
[1] = target: SARS-CoV-2 RBD wild type (SARS-CoV-2 (wild type)) (UniProt P0DTC2); assay: flow cytometry bead binding; conditions: 5'-hexynyl clicked to C-terminal azide of peptide LGKGDFR
RBD-hACE2 binding = RBD-hACE2 binding (Severe acute respiratory syndrome coronavirus 2, UniProt P0DTC2); conditions: ELISA, 3 μM, n = 3 independent replicates
pseudotyped SARS-CoV-2 = assay type: cell-based, SARS-CoV-2 (human hACE2-293T cells)

Substance: GGAAGAGATGGCGACCACACCAAATCTGAGTCTACCCCATGAAGGAGCTGATCCTGATGG [R7-03 hybrid ligand (LGKGDFR-DNA)]
- binding signal (RBD-binding fraction relative to R7-02) [1]: 0.125

Substance: GGAAGAGATGGCGACCTCCACAACCGCTGATCGACGCAGATCTTGTGGGTAGCTGATCCTGATGG [R7-01 hybrid ligand (LGKGDFR-DNA)]
- binding signal (RBD-binding fraction relative to R7-02) [1]: 0.2

Substance: LGKGDFR [LGKGDFR peptide]
- inhibition of RBD-hACE2 interaction (RBD-hACE2 binding): 11.69%
- percentage of GFP-expressing infected cells over the total hACE2-293T cells (pseudotyped SARS-CoV-2): 22.0%
